Test [1] has as its target T1, full length cyno PD-L1 on cells (cyno, UniProt G7PSE7 19-290).
T1 construct: also called CHO-K1-cPD-L1
The test can be described thus: FACS CHO-K1-cPD-L1, 0.001 nM mAb. The protocol:
(§1) Other CHO-K1 were stably transfected with a pIRES plasmid containing the nucleic acid sequence encoding full length cyno PD-L1 to generate CHO-K1 cells stably expressing cyno PD-L1 (herein referred to as CHO-K1-cPD-L1 cells). […] The culture media was aspirated, and the cells were washed twice with HBSS (Hanks Balanced Salt Solution, Invitrogen). The cells were treated with enzyme-free cell dissociation solution (Versene solution, Invitrogen) and collected. The cells were then washed twice with HBSS, cell counts were determined, and cells were resuspended with HBSS at 2×10⁶ cells/mL. Goat serum was added to the cell suspension to a final concentration of 1%, and the cells were blocked for 30 minutes on ice and then washed twice with HBSS. The cells were collected after centrifugation and resuspended in FACS buffer (HBSS+1% BSA, v/v) at 2×10⁶ cells/mL. 100 μL of the cell suspension were then added to each well of 96-well plate. 100 μL of purified anti-PD-L1 antibodies from Example 2 were added to each well of the 96-well plate and incubated for 2 hours on ice. […] The samples were washed three times with FACS buffer, and 100 μL fixation buffer (4% paraformaldehyde v/v) were added to each well and incubated for 10 minutes. The cells were then washed twice with FACS buffer and resuspended in 100 μL FACS buffer. The mean fluorescence intensity (MFI) was determined using FACS Calibur (BD), and the results are shown in FIGS. 7-8 and in Tables 10-11.

Test [2] deals with T2, human PD-L1^ECD-hFc protein (human, UniProt Q9NZQ7 19-239, biotinylated in the PD-1 binding ELISA (Table 3) and in the Octet assay (Table 12)).
T2 construct: The plain and the biotinylated protein are kept as one molecule; also called PD-L1-hFc; Immunogen A; not shown: human IgG Fc fragment (hFc)
T2 sequence (Q9NZQ7 19-239): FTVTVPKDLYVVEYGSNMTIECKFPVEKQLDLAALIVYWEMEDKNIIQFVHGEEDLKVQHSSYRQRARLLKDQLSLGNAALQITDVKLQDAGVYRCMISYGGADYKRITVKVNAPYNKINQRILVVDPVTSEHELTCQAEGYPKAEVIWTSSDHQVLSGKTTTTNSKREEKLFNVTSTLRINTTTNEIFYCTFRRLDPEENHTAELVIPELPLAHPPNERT
As to the kind of experiment: ELISA, 1 nM mAb. The procedure: (§2) 100 μL of the diluted recombinant proteins were added to each well of 96-well plate. The plates were sealed with plastic film and incubated at 4° C. overnight. The plates were washed twice with wash buffer (PBS+0.01% (v/v) Tween20), and incubated with blocking buffer (PBS+0.01% (v/v) Tween20+1% (w/w) BSA) at room temperature for 2 hours. The blocking buffer was aspirated away, and 100 μL of purified anti-PD-L1 antibodies were added to each well and incubated for 2 hours at 37° C. The plates were washed three times with wash buffer (PBS+0.01% (v/v) Tween20). HRP-conjugated secondary antibody (Sigma) was added to each well and incubated for 2 hours at 37° C. After the plates were washed three times with wash buffer, 100 μL TMB substrate were added to each well, and the plates were incubated for 30 minutes at room temperature. 100 μL stop solution (0.1N HCl) was added to each well to stop the reaction.
For orientation: An ELISA detects its analyte on a solid surface through an enzyme-linked reagent.

Test [3] addresses T3, full length human PD-L1 on cells (human, UniProt Q9NZQ7 19-290).
T3 construct: Also used as the target of the cell-based functional assays (transfected stimulator cells; PD-L1 of the cells in the mixed lymphocyte reaction); also called CHO-K1-hPD-L1; CHOK1-hPD-L1
As to the kind of experiment: FACS CHO-K1-hPD-L1, 0.01 nM mAb.

Test [4] concerns the target T3, full length human PD-L1 on cells. As to the kind of experiment: FACS CHO-K1-hPD-L1, 0.1 nM mAb.
The target of test [5] is T2, human PD-L1^ECD-hFc protein. As to the kind of experiment: ELISA, 0.1 nM mAb. The protocol:
as §2

In test [6] the target is T1, full length cyno PD-L1 on cells. The test can be described thus: FACS CHO-K1-cPD-L1, 10 nM mAb. The procedure:
as §1

Test [7] addresses T3, full length human PD-L1 on cells. As to the kind of experiment: cell-based or functional assay.
For test [8] the target is unchanged. As to the kind of experiment: FACS CHO-K1-hPD-L1, 0.0001 nM mAb. The protocol:
as §1

For test [9], the target named is T2, human PD-L1^ECD-hFc protein. As to the kind of experiment: ELISA, mAb concentration not given. The protocol: as §2
Another test addresses T4, hPD-L2 (human, UniProt Q9BQ51 20-219, limits assumed).
T4 construct: Bought protein
T4 sequence (looked up): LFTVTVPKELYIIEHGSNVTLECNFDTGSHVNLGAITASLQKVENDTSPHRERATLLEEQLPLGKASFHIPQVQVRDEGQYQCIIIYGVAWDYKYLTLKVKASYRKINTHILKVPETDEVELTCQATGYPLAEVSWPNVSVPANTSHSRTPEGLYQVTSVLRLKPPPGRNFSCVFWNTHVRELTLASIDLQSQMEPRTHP
The test can be described thus: ELISA, mAb concentration not given. The protocol: as §2

Test [10] addresses T1, full length cyno PD-L1 on cells. The test can be described thus: FACS CHO-K1-cPD-L1, 1.23 nM mAb. The protocol: as §1
Test [11] deals with T2, human PD-L1^ECD-hFc protein. The test can be described thus: ELISA, 0.370 nM mAb. The procedure: as §2
Test [12] has the same target. The test can be described thus: ELISA, 30 nM mAb. The procedure: as §2
Test [13] addresses T5, cyno PD-L1^ECD-hFc protein (cyno, UniProt G7PSE7 19-239).
T5 construct: also called Cyno Monkey PD-L1^ECD-hFc
The test can be described thus: ELISA, 30 nM mAb. The protocol: as §2

The target of test [14] is T3, full length human PD-L1 on cells. As to the kind of experiment: FACS CHO-K1-hPD-L1, 0.41 nM mAb. The procedure:
as §1

The target in test [15] is T1, full length cyno PD-L1 on cells. The test can be described thus: FACS CHO-K1-cPD-L1, 0.14 nM mAb. The protocol: as §1

T3 sequence (Q9NZQ7 19-290 limits assumed): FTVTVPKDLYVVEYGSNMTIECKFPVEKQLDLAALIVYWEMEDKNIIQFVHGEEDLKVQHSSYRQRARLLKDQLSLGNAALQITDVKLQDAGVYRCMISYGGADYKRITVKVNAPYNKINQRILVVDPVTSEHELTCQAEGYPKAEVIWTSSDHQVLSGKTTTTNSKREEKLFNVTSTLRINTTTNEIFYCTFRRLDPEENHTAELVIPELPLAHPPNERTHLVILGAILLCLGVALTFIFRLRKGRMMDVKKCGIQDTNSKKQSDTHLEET
T1 sequence (G7PSE7 entry or part of it limits assumed): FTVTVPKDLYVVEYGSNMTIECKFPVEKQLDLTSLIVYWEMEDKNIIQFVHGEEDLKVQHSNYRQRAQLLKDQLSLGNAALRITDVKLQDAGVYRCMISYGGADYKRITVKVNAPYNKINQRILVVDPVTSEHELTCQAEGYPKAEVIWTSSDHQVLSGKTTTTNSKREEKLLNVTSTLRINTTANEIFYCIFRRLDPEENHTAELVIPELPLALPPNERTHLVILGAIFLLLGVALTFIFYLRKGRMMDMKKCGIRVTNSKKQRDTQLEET
T5 sequence (G7PSE7 entry or part of it limits assumed): as the sequence (Q9NZQ7 19-239) above, with A33T, A34S, S62N, R68Q, Q82R, F173L, T185A, T192I, H215L counted along it

B1: chimeric anti-PD-L1 antibody 192D9E7 (antibody, V domains shown)
VH: EVQLVESGGGLVQPGGSLRLSCAASGFTFSSYWMSWVRQAPGKGLEWVADIKQDGSEKYYVDSVKGRFTISRDNAKNSLYLQMNSLRAEDTAVYYCTRDKPHWGGVMDAWGQGTSVTVSS
VL: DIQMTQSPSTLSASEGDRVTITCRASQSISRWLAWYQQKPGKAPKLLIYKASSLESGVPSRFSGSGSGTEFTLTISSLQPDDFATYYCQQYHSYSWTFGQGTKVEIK
notes: Purified from hybridoma of Harbour H2L2 mice: human variable regions, rat constant regions
For the molecule B1, the Mean fluorescence intensity amounted to 1.93 in [1]; 7.85 in test [3]; 23.5 in test [4]; 82.3 in test [6]; 3.58 in test [8]. For the same molecule, the OD450 nm in test [2] was found to be 2.77; in test [5], 1.55. The “IL-2 (pg/mL), MLR donor 2, 0.001 µg/mL mAb” value in test [7] was determined as 73.4 pg/mL. Further, the “IL-2 (pg/mL), MLR donor 2, 0.01 µg/mL mAb” value in test [7] was found to be 130 pg/mL. Further, in [7], the “IL-2 (pg/mL), MLR donor 2, 0.1 µg/mL mAb” value worked out at 120 pg/mL. Moreover, in test [7], the “IL-2 (pg/mL), MLR donor 2, 1 µg/mL mAb” value is 94.4 pg/mL.

B2: chimeric anti-PD-L1 antibody 78A11F6 (antibody, V domains shown)
VH: EVQLVESGGGLVQPGGSLRLSCAASGITFSSYWMSWVRQTPGKGLEWVANIKQDGSEKYYVKSVKGRFTISRDNAKNSLYLQMNSLRAEDTAVYYCVRDRAVPGTGAFDIWGQGTMVIVSS
VL: DIQMTQSPSTLSASVGDRVTITCRASQSISNWLAWYQQKPGKAPKLLIYKASSLESGVPSRFSGSGSGTEFTLTISSLQPDDFATYYCQQYDSSLFTFGQGTKLEIK
notes: as for B1
As for B2, the OD450 nm was found to be 2.71 in test [9]; 0.205 with hPD-L2; 1.39 in test [11]; 1.95 in test [12]; 2.06 in test [13]. Also, the results for the Mean fluorescence intensity in test [10], in test [14] and in [15] were 124, 105 and 38.3, respectively.

B3: chimeric anti-PD-L1 antibody 73G11B3 (antibody, V domains shown)
VH: EVQLVESGGGLVQPGGSLRLSCVVSGFTFSSYWMSWVRQTPGKGLEWVANIKQDGSEKYYVDSVKGRLTISRDNAKNSLYLQMNSLRAEDTAVYYCVRDRAVPGTGALDIWGQGTMVTVSS
VL: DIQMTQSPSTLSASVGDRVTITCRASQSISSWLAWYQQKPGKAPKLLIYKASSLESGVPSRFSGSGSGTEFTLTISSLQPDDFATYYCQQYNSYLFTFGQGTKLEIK
notes: as for B1
As for B3, the Mean fluorescence intensity in test [1] was found to be 2.02; in test [3] it was 3.96; in [4], 17.2; in test [6] it was 99.2; in [8] it was 1.87. For the same molecule, the OD450 nm in [2] stood at 2.7; in test [5] it was 0.88. The “IL-2 (pg/mL), MLR donor 2, 0.001 µg/mL mAb” value in test [7] worked out at 54.2 pg/mL. Moreover, the “IL-2 (pg/mL), MLR donor 2, 0.01 µg/mL mAb” value in test [7] worked out at 90.1 pg/mL. The “IL-2 (pg/mL), MLR donor 2, 0.1 µg/mL mAb” value in [7] came to 110 pg/mL. In addition, in test [7], the “IL-2 (pg/mL), MLR donor 2, 1 µg/mL mAb” value came out at 140 pg/mL.

B4: chimeric anti-PD-L1 antibody 73D3G2 (antibody, V domains shown)
VH: EVQLVESGGGLVQPGGSLRLSCAASGFTFNTYWMNWVRQAPGRGLEWVANIKQDGGEKYYVDSVKGRFTISRDNAKNSLYLQMNSLRAEDTAMYYCARDGRSWYPDAFDIWGQGTVVTVSS
VL: DIQMTQSPSTLSASVGDRVTITCRASQSISTWLAWYQQKLGKAPKLLIYEVSILESGVPSRFSGSGSGTEFTLTISSLQPDDFATYYCQQYHSFSSFGGGTRVEIK
notes: as for B1
As to B4, the OD450 nm in [9] was 2.75; in the test with hPD-L2, 0.156; in [11], 1.29; in test [12] it was 1.81; in test [13], 1.81. The Mean fluorescence intensity in [10] was 116; in [14] it was 87; in test [15], 44.3.

B5: chimeric anti-PD-L1 antibody 105C5D7 (antibody, V domains shown)
VH: EVQLVESGGGLVQPGGSLRLSCAASGFTFSSYWMSWVRQAPGKGLEWVANIKQDGNEKYYVDSVKGRFTISRDNAKNSLYLQMNSLRAEDTAVYYCARNIKWGDAFDIWGQGTMVTVSS
VL: DIQMTQSPSSLSASVGDRVTITCRASQSISSYLNWYQQKPGKAPKLLIYAASSLQSGVPSRFSGSGSGTDFTLTISSLQPEDFAIYSCQQSYSIPLTFGGGTKVEIK
notes: as for B1
As to B5, the OD450 nm in [9] was 2.64; in the test with hPD-L2 it was 0.214; in test [11], 1.19; in test [12], 1.53; in [13], 1.53. Further, the Mean fluorescence intensity came out at 137 in [10], 137 in [14] and 42 in [15].

B6: chimeric anti-PD-L1 antibody 127D2F3 (antibody, V domains shown)
VH: EVQLVESGGGLVQPGGSLRLSCVASGFTFSSYWMSWVRQAPGKGLEWVANIKQDGSEKYYVDSVKGRLTISRDNAKNSLYLQMKSLRAEDTAVYYCARDPIYSSYFDYWGQGILVTVSS
VL: DIQMTQSPSSLSASVGDRVTITCRASQSISNYLNWYQQKPGKAPKLLIYAASSLQSGVPSRFSGSGSGTDFTLTISSLQPEDFAAYYCQQSYGIPFTFGPGTKVDIK
notes: as for B1
For B6, the Mean fluorescence intensity in [1] was 1.91; in [3] it was 5.31; in test [4], 15.5; in [6], 105; in test [8] it was 4.04. Further, the results for the OD450 nm in test [2] and in test [5] were 2.8 and 1.65, respectively. Also, the “IL-2 (pg/mL), MLR donor 2, 0.001 µg/mL mAb” value in test [7] turned out to be 68.2 pg/mL. The “IL-2 (pg/mL), MLR donor 2, 0.01 µg/mL mAb” value in test [7] amounted to 100 pg/mL. In addition, the “IL-2 (pg/mL), MLR donor 2, 0.1 µg/mL mAb” value in test [7] amounted to 71.5 pg/mL. In addition, the “IL-2 (pg/mL), MLR donor 2, 1 µg/mL mAb” value in test [7] came out at 101 pg/mL.
